Laboratory results: US7598225B1 (priority 1995, dated 2009)

Assays:
human HLA A2 molecules = human HLA A2 molecules (Homo sapiens, UniProt P04439, /I121R/I166T/I218V/L300P/L318F/N151K/N90K/P208A/P217A/Q86G/Q94H/R138H/R169H/T345S); type: binding
[1] = tested on: PBMC from donors expressing the HLA A2 class 1 allele; type: cell-based, human

Row | Substance | score in T2 cell binding assay (human HLA A2 molecules) | T cell lines from PBMC of two prostate cancer patients [1]
1 | PSA 154-163: PSA peptide, amino acids 154-163, sequence V I S N D V C A Q V (Table 7) (VISNDVCAQV) | positive | established
2 | PSA 141-150: PSA peptide, amino acids 141-150, sequence F L T P K K L Q C V (Table 7) (FLTPKKLQCV) | positive | 
3 | PSA 146-154: PSA peptide, amino acids 146-154, sequence K L Q C V D L H V (Table 7) (KLQCVDLHV) | positive | 
